Patent publication US20060211084A1 (TH NITRATE ELIMINATION, published 2006)

Molecular target: the molecule itself
Assay: gel filtration chromatography (self-association)

B1: simplified eukaryotic nitrate reductase (S-NaR1) (enzyme)
chain: MDSIVTEVTYGLEIKKIKDITELPFPVRQDSPLTEVLPTDLKTKDNFVARDPDLLRLTGSHPFNSEPPLTKLYDSGFLTPVSLHFVRNHGPVPYVPDENILDWEVSIEGMVETPYKIKLSDIMEQFDIYSTPVTMVCAGNRRKEQNMVKKGAGFNWGAAGTSTSLWTGCMLGDVIGKARPSKRARFVWMEGADNPANGAYRTCIRLSWCMDPERCIMIAYQQNGEWLHPDHGKPLRVVIPGVIGGRSVKWLKKLVVSDRPSENWYHYFDNRVLPTMVTPEMAKSDDRWWKDERYAIYDLNLQTIICKPENQQVIKISEDEYEIAGFGYNGGGVRIGRIEVSLDKGKSWKLADIDYPEDRYREAGYFRLFGGLVNVCDRMSCLCWCFWKLKVPLSELARSKDILIRGMDERMMVQPRTMYWNVTSMLNNWWYRVAIIREGESLRFEHPVVANKPGGWMDRVKAEGGDILEQKLISEEDLNSAVDHHHHHH
notes: Expressed in Pichia pastoris and purified by nickel IMAC; also called nitrate-reducing portion of Pichia angusta NAD(P)H: nitrate reductase
  binding result: binds
